Measurements from publication PMC5981002, “Probing the interaction interface of the GADD45β/MKK7 and MKK7/DTP3 complexes by chemical cross-linking mass spectrometry” (International Journal of Biological Macromolecules, 2018).
One block for each molecule: values may come before it.

Legend:
[1] = biological target: His6-MKK7 Kinase Domain (MKK7_KD, residues 101–405, Ser271Asp and Thr275Asp) (UniProt O14733); assay: other fluorescence titration; tryptophan fluorescence quenching; 1.25 μM MKK7_KD in 10 mM phosphate buffer pH 7.5, peptide added stepwise, 25.0 °C, excitation 295 nm, emission read at 333 nm
[2] = biological target: T1, Recombinant His6-GADD45β, O75293; assay: cross-linking; SDA reacted first with GADD45β (preliminary reaction order), then photo-cross-linking; conditions: remark: other sources report otherwise
T1 chain: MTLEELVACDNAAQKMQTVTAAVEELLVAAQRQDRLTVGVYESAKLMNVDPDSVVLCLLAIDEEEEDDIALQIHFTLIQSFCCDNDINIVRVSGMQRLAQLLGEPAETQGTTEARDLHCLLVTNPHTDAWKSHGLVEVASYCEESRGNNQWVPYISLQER

[3] = biological target: T2, His6-MKK7 Kinase Domain (MKK7_KD, residues 101–405, Ser271Asp and Thr275Asp) (UniProt O14733 101-405, Ser271Asp | Thr275Asp); assay: SPR; Biacore3000; GADD45β covalently immobilised on a CM5 chip (EDC/NHS, pH 3.5), soluble MKK7_KD injected; KD averaged over the values at the various concentrations; conditions: both partners purified
T2 construct: Theoretical mass with tag is printed as 36194.8 Da; In the GADD45β cross-linking experiment this protein was first labelled on amines with SDA (NHS-diazirine); also called MKK7_KD 101–405; MKK7_KD (101–405); source: E. coli BL21(DE3), pETDuet-1, purified (His-Trap, Superdex 75 gel filtration)
T2 sequence (looked up): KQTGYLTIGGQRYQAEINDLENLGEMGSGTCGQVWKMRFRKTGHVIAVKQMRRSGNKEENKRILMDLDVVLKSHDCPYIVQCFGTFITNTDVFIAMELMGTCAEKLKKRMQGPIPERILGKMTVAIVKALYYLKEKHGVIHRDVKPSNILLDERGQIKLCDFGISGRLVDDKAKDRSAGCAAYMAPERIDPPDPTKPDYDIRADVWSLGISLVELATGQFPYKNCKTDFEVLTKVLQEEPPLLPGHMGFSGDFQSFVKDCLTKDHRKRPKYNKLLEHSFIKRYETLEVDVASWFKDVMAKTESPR

[4] = biological target: T2, His6-MKK7 Kinase Domain (MKK7_KD, …); assay: ELISA; MKK7_KD coated on polystyrene wells at 100 nM; biotinylated GADD45β at 10–160 nM; detection with Streptavidin-HRP; 1:1 curve fit; conditions: both partners purified

- stoichiometry N [2]: 2
B1: Recombinant His6-GADD45β, O75293 1-160 (natural protein)
chain: MTLEELVACDNAAQKMQTVTAAVEELLVAAQRQDRLTVGVYESAKLMNVDPDSVVLCLLAIDEEEEDDIALQIHFTLIQSFCCDNDINIVRVSGMQRLAQLLGEPAETQGTTEARDLHCLLVTNPHTDAWKSHGLVEVASYCEESRGNNQWVPYISLQER

- Kd [4]: ~30 nM
B3: biotinylated GADD45β (natural protein, UniProt O75293 1-160, looked up)
chain: MTLEELVACDNAAQKMQTVTAAVEELLVAAQRQDRLTVGVYESAKLMNVDPDSVVLCLLAIDEEEEDDIALQIHFTLIQSFCCDNDINIVRVSGMQRLAQLLGEPAETQGTTEARDLHCLLVTNPHTDAWKSHGLVEVASYCEESRGNNQWVPYISLQER
modifications: biotin (site not stated)
notes: GADD45β, UniProt O75293, 160 amino acids; as m1, biotinylated; also called biotin-GADD45β; biotinylated variant of GADD45β; source: E. coli BL21(DE3), pET28a, purified (His-Trap, gel filtration), biotinylated

Second part, the molecule before the results:

Molecule: DTP3 (Ac-D-Tyr-D-Arg-D-Phe-NH2) (peptide)
- Kd [1]: 100 nM

B2: Recombinant His6-GADD45β (natural protein, UniProt O75293 1-160, looked up)
chain: MTLEELVACDNAAQKMQTVTAAVEELLVAAQRQDRLTVGVYESAKLMNVDPDSVVLCLLAIDEEEEDDIALQIHFTLIQSFCCDNDINIVRVSGMQRLAQLLGEPAETQGTTEARDLHCLLVTNPHTDAWKSHGLVEVASYCEESRGNNQWVPYISLQER
notes: GADD45β, UniProt O75293, 160 amino acids; The theoretical mass of the tagged protein is printed as 19196.6 Da, against 17,818 Da for the 160-residue protein; also called Growth arrest and DNA-damage-inducible GADD45-family member GADD45β; source: E. coli BL21(DE3), pET28a, purified (His-Trap, Superdex 75 gel filtration)
- Kd [3]: ~6 nM
